From PMC3842537

Tests used:
PDGF-BB = PDGF-BB (human, UniProt P01127 82-190); assay: FAM fluorescence recovery on GO array
thrombin = thrombin (human, UniProt P00734;P00734 328-363;364-622); assay: FAM fluorescence recovery on GO array

PDGF-BB, sequence (P01127 82-190): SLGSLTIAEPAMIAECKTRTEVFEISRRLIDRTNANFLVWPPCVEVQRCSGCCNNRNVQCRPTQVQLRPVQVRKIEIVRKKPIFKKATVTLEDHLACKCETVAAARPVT

Binder | binding result (PDGF-BB) | binding result (thrombin)
CAGGCTACGGCACGTAGAGCATCACCATGATCCTG (structured_DNA) [PDGF aptamer] | binds | 
AGTCCGTGGTAGGGCAGGTTGGGGTGACT (structured_DNA) [thrombin aptamer (TASSET)] |  | binds
